Test results reported in doi:10.1101/2020.05.30.125013.

Legend:
[1] = molecular target: MlaD from Acinetobacter baumannii (Acinetobacter baumannii) (UniProt V5V921); test: cryo-EM structure
[2] = molecular target: MlaF from Acinetobacter baumannii (Acinetobacter baumannii); test: cryo-EM structure

Row | Molecule | stoichiometry N [1] | percent of particles with MlaB bound to both MlaF copies [2] [%]
1 | MlaD from Acinetobacter baumannii (from UniProt V5V921 1-226) (natural protein) | 6 | 
2 | MlaB from Acinetobacter baumannii (natural protein) MVQYLNQELVVSGKIDFENAEQQYQAGLAIIKKQTSFPLIVDLKQLEHGNTLALAVLVQWLRQTPQKSGLHFKNVPEKMLKIIQACHLQEDLHLV |  | 50
